According to the DeepSol protein solubility set:

Assay: soluble on expression in E. coli; label from the status in PepcDB or PDB records

| Sequence | soluble on expression in E. coli |
| --- | --- |
| MPHPTHCRSANAVFRARMEFGLLEAPVSFSTLMDKRERGSFDSQFLIAMPGLDDGNFARSVIYICAHSDAGAMGFIINRPQQITFTDILLHLKLVDSNDAIMLPNRTREFPIQCGGPVESGRGFVLHSDDYLSESSIPVSDDISLTATLDIVRAISNGRGPQKATMMLGYAGWGPGQLENEIANNGWLNCPAAEELIFDRGLDNKYERALALMGVDARMLSTDAGHALEHHHHHH | soluble |
| MSLVMDYEGFKKEIFKLTGIDLGSYKEKQMKRRLDSLISKNNFSGYKTYIEALKTDKKLFNEFINYMTINVSEFYRNPEQWEKLKNIILPSLLEKNSNPKIWSAACSSGDEPYTLVMILNEFLPLNKIKIIATDIDAEILVKAKNGLYTEKSIANLPKKYVEKYFKVDGDVYAINQEVKNCVEFSKHNLLADPYPKNCDLIVCRNVLIYFTEEAKAEIYKKFNRALKTGGVLFVGSTEQIILYNLYNFKPIQTFFYQKEKEGHHHHHH | soluble |
| MGSDKIHHHHHHMAAKLFGIMMINVQSIELSIVNLRTLRQVERVRSDVSLGEDIYDQHTIDYDSVEQAAQALSGFVQIMNDYGVKDYHLWGSWSLSSANNADYIQDQLLVRTGLKIDWLSSSQETYLRSVAVAVHFPRFKQMITKPTYLLGINSGSVGISHYDQSNFVFSRSLRLGPVRIAEVLEDLQSSVPNYVEVLDDYISSQIVDFGRFLPGRRDQPSNVVMLGVAPFATLFRQQQSKAGVEELSKADFQALYEDVLNASDQYLMDKYEVDEEDVRLIVPELLLINELLQLTNAEKIWLGNVTVLDGLIIQEAIKLGYKKYNFNDQIVTAAKNIADRYNVEPKHRDLVTKFSLHLFDQLKPLHHLGKRERLLLQVAAIVHDVGSYIDPHQHYLHSDYILQATELMGLTDTEKRMVALISRYHSAQTPSKDIRHFGHLQVEQRLLVSKLSAILRIADALDDGRKQKIDKISVSIRNPRVIITCFAHDDLFLENWVFAQKAEFFKEVFGLTPVIKLRGVR | not soluble |
| MGHHHHHHSHMSSRGHSTLPRTLMAPRMISEGDIGGIAQITSSLFLGRGSVASNRHLLQARGITCIVNATIEIPNFNWPQFEYVKVPLADMPHAPIGLYFDTVADKIHSVSRKHGATLVHCAAGVSRSATLCIAYLMKFHNVCLLEAYNWVKARRPVIRPNVGFWRQLIDYERQLFGKSTVKMVQTPYGIVPDVYEKESRHLMPYWGI | not soluble |
| MSVRIEDHAMLGNCHSAALVDHRGTIGWLCLPRFDSDAVFAALLGDQQHGQWALSPAADFRTERAYQDDSLVLCTRMITDSGTVELIDFMVASENGEVHQHLVRIVRCVQGSVPMHMRLTFRFNYGRTLEHHHHHH | soluble |
| MGKEQFREADKALKVVGVKFAPGDCEFMRQTAHVPIFNNKLYEDVEGKLQPANYGPLDPKMGVSTKTGTCSTCGLGLTDCVGHFGYFDLDVPVFHIGFFKLTIQLLQCICKNCSSILLTPEQHRVFSRQVMNPNLDYLHRKALHKRIVAACKKGSTCSHCGLKNGTVKKAVGAVLKIAFASPVSVDELGKFATMFSSNQEVGDHVRKMKFTLLNPLFVQKLFSNIKEGDIPVLMVRSGEEKHPNDLLLTRMPVPPVCIRPSVVSEVKAGTTEDDVTMKLMEIMLTNDVLKKHKRDGAPSKTLFETWEHLQIQCALYINSEMSGLPPDMQPKRAMRAFTQRLKGKQGRFRGNLCGKRVDFSGRTVISPDPNLRIDQVGVPIHVAMTLTFPEIVNASNIEKMRQLVINGSDVHPGANYLVEKKTGNKKLLKYGKRDELAKNLRMGDTIERHLDDNDVVLFNRQPSLHKISIMSHRAKVMPGRTFRFNECACTPYNADFDGDEMNLHLPQTYEAKAEASELMNVKNNLITPRSGEPLVAAIQDFITGGYLLTHKDTFLPRAEVYRFAAALIDASAKKQTKIRIPPPAIRRPVELWTGKQLIELIIRPDKGSDVSLNLTAKNKSYTGNLELCSKDSYVIIRNSVLLAGCLDKSLLGSSSKVNIFYMLMRDYGEDAAVDAMWRLARMAPVFLSNRGFSIGIGDVRPSEQLLREKGQLVDNGYSKCSQYIKELEEGKLKAQPGCTEEETLESIILRELSTIRDHAGQVCLRNLSKYNAPLTMAVCGSKGSFINISQMIACVGQQAISGHRPPDGFEERSLPHFERKKKTPEAKGFVANSFYSGLTPTEFFFHTMGGREGLVDTAVKTAETGYMQRRLVKCLEDLCASYDGTVRSSVGDVIEFVFGEDGLDPAMMEAKDGSVVDFTHVLEHAKNIQTTKEQPIPVDKLDEVLKAEIQKKFKGKYVHFADKLSEYITQTEIKKSKKWQNGKAHCGNHETADLKTKESCKICKNLEAYKTSLLANSCLTKTQLCSFIELCYYKVARAITEPGTAVGAIAATSIGEPSTQMTLKTFHFAGVASMNITQGVPRIKEIINAVKTISTPIITAALLDPYDESLARRVKARIEKTTLGEICDYIEEVYLPDDYFLLVKLNSKRIRLLQLEVCMESISYAIATSKVCPQMRGCKIVAHGKTMMAIRPPSTSKLSKTMTMQILKYSLANVVVKGIPSVNRCVIHADEKKGDFYSLLVEGTDFRSVLSSVGVDPRKTNFNNALVVADVLGIEAARSCIINEIIATMDAHGIGLDRRHVMLLADVMTYRGEVLGITRNGLVKMKDSVLLLASFEKTMDHLFEAAFFSQRDVIHGVSECIIMGTPMTVGTGTFKLMQKYDKKAVLKQNSPIFERLNVTL | not soluble |
| MPIEATMSTSNESANLLVPSFLPRGEVLGWNLTSVVNPVTRRKEYTYTVCVQTVGAFQCTEQAGVVLVKCDGPCGNKLPTNHLIALGKCDHMLCKACFGIVKNPDGSYGCSNFYCWSEPRGNFRKEKANYNKVINKQICRARKFKQDGEDLQACSKSNLPKTPADLSDREMNSAKSSESDTSSSDGSSYQSTVDSYGLPKRF | not soluble |
| MGSDKIHHHHHHMNKDFTFTIKSIRLDEDYHPSDSTRITTNFANLARGSYRQANLRNALKMIDNSFNALANWDNPKGDRYSVELEIISVDMDIEGSGKTFPSIEILKTNIVDHQTNQRIEGIVGNNFSSYVRDYDFSVLLQAHNKDQPNFSIPDNFGELHGKLFQYFVNSNAYKQNFKKTPVICLSVSDNKTYHRTENQHPVLGVEYQPNESSLTEQYFKKMGLQVRYFMPPNSVAPLAFHFFGDLLNDYTNLELISTISTMGTFQKIYRPEIYNANAAAGKSYQPNLKNLDHSLTQIVYDREERSKLANEQGKFAEKHFIKPYQTVLEQWSANYV | not soluble |
| MGHHHHHHSHMKNYKAIGKIGEGTFSEVMKMQSLRDGNYYACKQMKQRFESIEQVNNLREIQALRRLNPHPNILMLHEVVFDRKSGSLALICELMDMNIYELIRGRRYPLSEKKIMHYMYQLCKSLDHIHRNGIFHRDVKPENILIKQDVLKLGDFGSCRSVYSKQPYTEYISTRWYRAPECLLTDGFYTYKMDLWSAGCVFYEIASLQPLFPGVNELDQISKIHDVIGTPAQKILTKFKQSRAMNFDFPFKKGSGIPLLTTNLSPQCLSLLHAMVAYDPDERIAAHQALQHPYFQEQRKTEKRAL | not soluble |
| MIDREQIVRIVSDYLSTGETFLVEVAIHPGNRILVELDSAQGVCIDECVALSRHIESQVDRDIEDYELEVGSTGLTSPLKVMRQWENCIDSELSVLLTNGMKETGRLITVAPEAIKLEVVRMVKPEGAKRKKPETQELTIVMADIKQAVRII | not soluble |
| MTTLAIDIGGTKLAAALIDNNLRISQRRELPTPASKTPDALREALKALVEPLRAEARQVAIASTGIIQEGMLLALNPHNLGGLLHFPLVQTLEAIAGLPTLAVNDAQAAAWAEYHALPDDIRDMVFITVSTGVGGGVVCDGKLLTGKGGLAGHLGHTLADPHGPVCGCGRVGCVEAIASGRGMAAAARDDLAGCDAKTLFIRAGEGHQQARHLVSQSAQVIARMIADVKATTDCQCVVIGGSVGLAEGYLEQVRAFLMQEPAPYHVALSAARYRHDAGLLGAALLAQGDTL | not soluble |
| MSLNYSVLPPEINSLRMFTGAGSAPMLAASVAWDRLAAELAVAASSFGSVTSGLAGQSWQGAAAAAMAAAAAPYAGWLAAAAARAAGASAQAKAVASAFEAARAATVHPMLVAANRNAFVQLVLSNLFGQNAPAIAAAEAMYEQMWAADVAAMVGYHGGASAAAAQLSSWSIGLQQALPEGHHHHHH | soluble |
| MSLAANMYRVGDYVYFENSSSNPYLIRRIEELNKTANGNVEAKVVCFYRRRDISSTLIALADKHATLSVCYKAGPGADNGEEGEIEEEMENPEMVDLPEKLKHQLRHRELFLSRQLESLPATHIRGKCSVTLLNETESLKSYLEREDFFFYSLVYDPQQKTLLADKGEIRVGNRYQADITDLLKEGEEDGRDQSRLETQVWEAHNPLTDKQIDQFLVVARSVGTFARALDCSSSVRQPSLHMSAAAASRDITLFHAMDTLHKNIYDEGHHHHHH | not soluble |
| AHHHHHHGSGMKYLIKLKYIKPAQLAVNREQKLAEFYPIFEDGTLGRVEAKARVFLPEYSDFAKGLGFEVKKRRMITEDDYAYLRAMVYGVVMGVLRNPGDWRRLEERVLEMEPIELRYWASKFRNAYWKYKNMRKLMFLARRFMEVEMI | not soluble |
| MKILLRNALITNEGKTFPGSVMIDGAFISRIIEGELPADDNLSADEVIECSGLRLFPGCIDDQVHFREPGLTHKATIASESRAAVAGGVTSFMDMPNTNPPTTMWERLLEKRQIGADTAWANYGFFFGGTNDNIDEIKRVDKHLVPGLKLFLGSSTGNMLVDNKETLEKIFGECDLLIATHCEKEEIIRANKEHYKAKYGNDLDIHFHPLIRSEEACYRSSAEAVELAERMNARLHILHLSTEKELSLFRNDIPTAQKRITSEVCVHHLWFSDTDYGRLGNRIKWNPAIKKESDREALRAAVRNGRIDIIATDHAPHLLREKEGSCLQAASGGPLVQHSLLALLELCNQGIFSIEEIVSKTAHIPATLFAIEKRGYIRPGYYADLVLVDPSSPHTVSADNILSLCGWSPFEGFTFSHSVAYTFVNGCLAYAKGRLAESRPTVHPLFFNR | soluble |
| MSLDGTVLLIDYFEYEREKTKIIFDNIGEYDFIEVENLKKFYSIFKDLDSITLIIMDIAFPVEKEGLEVLSAIRNNSRTANTPVIIATKSDNPGYRHAALKFKVSDYILKPYPTKRLENSVRSVLKICQRFRYEFDSAHVISMSIEDYISKEFKVASRAGQSLSVILMAPVGLEKEPSEQSTQISSELQDQIQNLAIEKVKLSLRSTDTAILNANRDILVILPFTNAAGAQKVLQKIQDNVREGLKSLNINYDDYYYAVSVTFPNDGKTFQSLMEKAVKKVEDKIMLEKITSIGVNILDNARNSYKKFNKEGHHHHHH | soluble |
| KSAIVHLINYQDDAELATRALPELTKLLNDEDPVVVTKAAMIVNQLSKKEASRRALMGSPQLVAAVVRTMQNTSDLDTARCTTSILHNLSHHREGLLAIFKSGGIPALVRMLSSPVESVLFYAITTLHNLLLYQEGAKMAVRLADGLQKMVPLLNKNNPKFLAITTDCLQLLAYGNQESKLIILANGGPQALVQIMRNYSYEKLLWTTSRVLKVLSVCPSNKPAIVEAGGMQALGKHLTSNSPRLVQNCLWTLRNLSDVATKQEGLESVLKILVNQLSVDDVNVLTCATGTLSNLTCNNSKNKTLVTQNSGVEALIHAILRAGDKDDITEPAVCALRHLTSRHPEAEMAQNSVRLNYGIPAIVKLLNQPNQWPLVKATIGLIRNLALCPANHAPLQEAAVIPRLVQLLVKAHQDAQRHVAAGTQQPYTDGVRMEEIVEGCTGALHILARDPMNRMEIFRLNTIPLFVQLLYSSVENIQRVAAGVLCELAQDKEAADAIDAEGASAPLMELLHSRNEGTATYAAAVLFRISEDKNPDYRKRVSVELTNSLFKHD | soluble |
| MSLRERNQVIPVLPPQERPRPTVVFDCEDFLVKKRFSFFNLDFLVTGRAFADLFLFHAAHIYELVHVSGSPGSFSRLLLHRIDPYGCISYKVYCKDKKTFSSEHLNRPLQRVMVVSTRENEYHKDFDGNTIKLERWSGDPEHGLLDLLNFLHSLHFMGIKDFRGTLRSYLGEGHHHHHH | not soluble |
